Assays:
RecQL4_N388 = target: T1, RecQL4_N388 (Homo sapiens, UniProt O94761 1-388); assay: EMSA
T1 sequence: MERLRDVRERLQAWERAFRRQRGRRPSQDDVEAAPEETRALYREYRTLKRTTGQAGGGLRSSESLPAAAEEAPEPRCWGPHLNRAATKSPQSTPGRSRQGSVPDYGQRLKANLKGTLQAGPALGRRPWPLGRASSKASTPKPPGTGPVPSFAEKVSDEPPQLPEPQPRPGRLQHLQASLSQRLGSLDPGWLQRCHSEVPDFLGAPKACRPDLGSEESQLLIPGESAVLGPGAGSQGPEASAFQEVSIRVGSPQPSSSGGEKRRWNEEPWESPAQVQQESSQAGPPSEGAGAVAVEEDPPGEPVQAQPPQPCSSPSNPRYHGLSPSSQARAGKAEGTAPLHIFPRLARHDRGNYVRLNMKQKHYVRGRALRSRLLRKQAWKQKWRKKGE

RecQL4_FL = target: T2, RecQL4_FL (Homo sapiens, UniProt O94761 1-1208); assay: EMSA
T2 sequence: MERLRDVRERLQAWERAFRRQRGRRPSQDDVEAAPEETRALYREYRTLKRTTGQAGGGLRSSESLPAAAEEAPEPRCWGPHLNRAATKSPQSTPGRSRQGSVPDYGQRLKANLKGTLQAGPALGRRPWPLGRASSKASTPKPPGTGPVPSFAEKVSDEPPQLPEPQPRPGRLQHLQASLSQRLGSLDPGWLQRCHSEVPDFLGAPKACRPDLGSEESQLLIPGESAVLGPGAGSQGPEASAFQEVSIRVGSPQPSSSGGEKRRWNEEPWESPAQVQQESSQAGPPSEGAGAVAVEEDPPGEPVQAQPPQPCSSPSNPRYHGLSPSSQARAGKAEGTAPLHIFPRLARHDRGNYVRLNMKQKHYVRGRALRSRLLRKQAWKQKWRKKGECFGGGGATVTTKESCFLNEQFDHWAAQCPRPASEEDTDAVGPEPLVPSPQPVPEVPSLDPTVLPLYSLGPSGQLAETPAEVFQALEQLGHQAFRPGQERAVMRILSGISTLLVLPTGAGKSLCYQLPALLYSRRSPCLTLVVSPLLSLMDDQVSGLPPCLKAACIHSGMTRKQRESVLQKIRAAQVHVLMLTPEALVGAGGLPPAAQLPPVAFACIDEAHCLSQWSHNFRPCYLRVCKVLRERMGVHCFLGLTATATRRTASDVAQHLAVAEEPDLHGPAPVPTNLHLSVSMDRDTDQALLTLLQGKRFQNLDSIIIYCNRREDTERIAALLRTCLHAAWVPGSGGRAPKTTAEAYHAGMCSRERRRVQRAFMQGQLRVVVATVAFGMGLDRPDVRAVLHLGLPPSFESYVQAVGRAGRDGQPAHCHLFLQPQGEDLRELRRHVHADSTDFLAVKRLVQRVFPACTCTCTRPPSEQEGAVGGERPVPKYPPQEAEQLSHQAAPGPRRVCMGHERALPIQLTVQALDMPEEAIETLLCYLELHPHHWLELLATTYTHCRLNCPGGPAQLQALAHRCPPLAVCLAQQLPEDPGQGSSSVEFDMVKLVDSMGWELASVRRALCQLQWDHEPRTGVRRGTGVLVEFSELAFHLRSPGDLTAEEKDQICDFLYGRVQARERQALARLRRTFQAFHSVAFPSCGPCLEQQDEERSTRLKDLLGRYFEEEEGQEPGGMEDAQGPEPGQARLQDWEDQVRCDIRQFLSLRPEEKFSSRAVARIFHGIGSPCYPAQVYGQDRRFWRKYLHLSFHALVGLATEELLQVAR

B1: LB2_GC (ssDNA)
DNA: GCAGAGGCCCGGCACGAGCTTCCCC
binding result (RecQL4_N388): binds | binding result (RecQL4_FL): binds
